Target: GFP-CC-tet-KLC1E^CTD (de novo-designed coiled-coil tetramer between GFP and KLC1E^CTD) (mouse)
Assay: cross-linking

A stoichiometry N of 4 was found for “GFP-CC-tet-KLC1E^CTD (de novo-designed coiled-coil tetramer between GFP and KLC1E^CTD)” in this work.
